In publication PMC10730821:

Tests used:
Test in all cases: high-speed atomic force microscopy (HS-AFM); channel held by its C-terminal His-tag on Ni2+-coated mica, reconstituted into a DMPC bilayer, extracellular side imaged; 20 mM Tris pH 7.4, 150 mM NaCl (WT, E32Q/N49K) or 50 mM NaCl (N49K); 5 or 10 frames/s; no membrane potential
[1] = biological target: NavAb channel E32Q/N49K mutant, C-terminal cytoplasmic domain truncated, C-terminal His-tag (Arcobacter butzleri) (UniProt A8EVM5)
[2] = biological target: NavAb channel, wild type, C-terminal cytoplasmic domain truncated, C-terminal His-tag (Arcobacter butzleri) (UniProt A8EVM5)
[3] = biological target: NavAb channel N49K mutant, C-terminal cytoplasmic domain truncated, C-terminal His-tag (Arcobacter butzleri) (UniProt A8EVM5)

NavAb channel E32Q/N49K mutant, C-terminal cytoplasmic domain truncated, C-terminal His-tag (from UniProt A8EVM5 1-230) (natural protein)
size of the VSD-VSD oligomer between channels [1]: 2
stoichiometry N [1]: 4

NavAb channel, wild type, C-terminal cytoplasmic domain truncated, C-terminal His-tag (from UniProt A8EVM5 1-230) (natural protein)
stoichiometry N [2]: 4

NavAb channel N49K mutant, C-terminal cytoplasmic domain truncated, C-terminal His-tag (from UniProt A8EVM5 1-230) (natural protein)
stoichiometry N [3]: 4
